Results as given in US20210008166A1 (SPECTRUM PHARMACEUTICALS, published 2021).
One block for each molecule: values may come before it.

What was measured:
[1] = molecular target: GLP-1R on CHO cells (CHO/GLP-1R); test: cell-based or functional assay
[2] = molecular target: T1, Fc fragment of eflapegrastim (human, UniProt P01861 107-325 = IgG part, aglycosylated (manufactured from recombinant E. coli cells)); test: ELISA with GST-FcγRIIB, anti-GST detection
T1 construct: Unconjugated Fc carrier tested alongside eflapegrastim; also called aglycosylated human IgG4 Fc fragment; immunoglobulin Fc region (IgG4)
T1 sequence (P01861 other isoform, or with tags, fused parts or gaps limits assumed): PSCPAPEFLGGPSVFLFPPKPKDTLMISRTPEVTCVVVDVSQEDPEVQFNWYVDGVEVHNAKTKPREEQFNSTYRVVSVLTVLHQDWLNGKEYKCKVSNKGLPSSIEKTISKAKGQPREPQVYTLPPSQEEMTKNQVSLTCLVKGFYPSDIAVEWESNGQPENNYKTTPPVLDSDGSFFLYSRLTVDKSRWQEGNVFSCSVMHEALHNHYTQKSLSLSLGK
Protocol: For C1q, FcγRIIB, FcγRIIIA, and FcRn binding assays, serial dilutions of the test materials were added to 96-well microplates coated with C1q, or GST fusion proteins of FcγRIIB or FcγRIIIA, or FcRn αβ2. After incubation and washing, HRP-conjugated anti-C1q antibody was added for C1q binding assay, and rabbit-anti-GST antibody and HRP-conjugated anti-rabbit IgG antibody were sequentially added for FcγRIIB, FcγRIIIA, and FcRn binding assays. The absorbance was measured at 450 nm as described above for FcγRI binding assay.

[3] = molecular target: T2, Chinese hamster ovary (CHO) cell-derived soluble recombinant human G-CSF receptor (R&D Systems, 381-050/CF) (human, UniProt Q99062 25-627); test: SPR (BIAcore 3000), receptor amine-coupled to CM5 chip, analyte 6.25-100 nmol/L, 25 C, 1:1 Langmuir fit
T2 construct: extracellular domain; Bought and amine-coupled to a CM5 chip; also called soluble human G-CSF receptor
T2 sequence (looked up): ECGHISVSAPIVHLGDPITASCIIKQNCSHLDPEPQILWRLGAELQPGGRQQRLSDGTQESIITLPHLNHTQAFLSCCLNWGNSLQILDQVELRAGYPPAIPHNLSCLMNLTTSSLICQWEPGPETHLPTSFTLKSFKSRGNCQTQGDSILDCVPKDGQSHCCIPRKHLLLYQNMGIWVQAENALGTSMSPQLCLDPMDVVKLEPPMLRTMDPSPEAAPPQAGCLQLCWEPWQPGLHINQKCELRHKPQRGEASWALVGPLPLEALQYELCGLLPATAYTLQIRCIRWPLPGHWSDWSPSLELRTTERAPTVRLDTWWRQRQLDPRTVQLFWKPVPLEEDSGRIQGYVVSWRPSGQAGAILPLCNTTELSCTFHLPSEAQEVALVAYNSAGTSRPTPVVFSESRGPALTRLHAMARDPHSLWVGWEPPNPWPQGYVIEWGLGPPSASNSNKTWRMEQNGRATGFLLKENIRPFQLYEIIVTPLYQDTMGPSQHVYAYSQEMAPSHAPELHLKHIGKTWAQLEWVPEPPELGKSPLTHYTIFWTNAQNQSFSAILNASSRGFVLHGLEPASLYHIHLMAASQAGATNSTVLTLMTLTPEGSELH
Text: Surface plasmon resonance technology and the BIAcore 3000 biosensor (GE healthcare) were employed to measure in vitro binding affinity to the G-CSF receptor. Amine-coupling chemistry was used to immobilize the G-CSF receptor on CM5 biosensor chip. […] The CM5 sensor chip surface was activated by injecting a 1:1 mixture of 0.1 mol/L N-hydroxysuccinimide (GE healthcare) and 0.1 mol/L 3-(N,N-dimethylamino)propyl-N-ethylcarbodiamide (GE Healthcare). […] The chip surface was then blocked with ethanolamine/HCl (GE Healthcare), pH 8.5, and washed with a regeneration solution (50 mmol/L NaCl; 5 mmol/L NaOH). […] Binding affinity was calculated using the 1:1 Langmuir fitting model for each test material.

Molecule: CA Exendin (lysine)-PEG-(N-terminus) Fc - Experimental group (Fc fusion)
- potency relative to the isomer linked at another position of Fc [1]: 6 times

B2: Pegfilgrastim (Neulasta) (ligand, UniProt P09919-2 31-204, looked up)
chain: TPLGPASSLPQSFLLKCLEQVRKIQGDGAALQEKLCATYKLCHPEELVLLGHSLGIPWAPLSSCPSQALQLAGCLSQLHSGLFLYQGLLQALEGISPELGPTLDTLQLDVADFATTIWQQMEELGMAPALQPTQGAMPAFASAFQRRAGGVLVASHLQSFLEVSYRVLRHLAQP
modifications: 20 kDa polyethylene glycol on the N-terminal methionine residue
notes: Commercial product
- Kd [3]: 2.9 nM

Now from value to molecule:

- % vs. Experimental group [1]: 16.1%
- EC50 (ng/ml), in vitro activity [1]: 590 ng/mL
Molecule: CA Exendin (lysine)-PEG-(lysine) Fc (Fc fusion)

- binding result [2]: no binding
B1: GST fusion protein of FcγRIIB (receptor, UniProt P31994 43-217, looked up)
chain: TPAAPPKAVLKLEPQWINVLQEDSVTLTCRGTHSPESDSIQWFHNGNLIPTHTQPSYRFKANNNDSGEYTCQTGQTSLSDPVHLTVLSEWLVLQTPHLEFQEGETIVLRCHSWKDKPLVKVTFFQNGKSKKFSRSDPNFSIPQANHSHSGDYHCTGNIGYTLYSSKPVTITVQAP
notes: not shown: GST
